Our source for the PLU mean values is US20220229068A1, “DETECTION OF PROTEIN TO PROTEIN INTERACTIONS” (THE GOVERNING COUNCIL OF THE UNIVERSITY OF TORONTO, priority 2019, published 2022).

Holding throughout (assay): SIMPL ELISA, bait-IN/prey-CIC
Test [1] concerns the target T1, DRAP1 (prey, CIC format) (human) (UniProt Q14919).
T1 sequence (looked up): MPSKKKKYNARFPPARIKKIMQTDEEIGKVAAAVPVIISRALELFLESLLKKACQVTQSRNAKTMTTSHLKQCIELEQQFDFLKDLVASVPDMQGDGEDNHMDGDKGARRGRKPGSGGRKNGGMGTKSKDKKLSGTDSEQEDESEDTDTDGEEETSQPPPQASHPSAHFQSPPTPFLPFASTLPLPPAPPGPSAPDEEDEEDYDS

Test [2] addresses T2, NTF4 (prey, CIC format) (human) (UniProt P34130).
T2 sequence (looked up): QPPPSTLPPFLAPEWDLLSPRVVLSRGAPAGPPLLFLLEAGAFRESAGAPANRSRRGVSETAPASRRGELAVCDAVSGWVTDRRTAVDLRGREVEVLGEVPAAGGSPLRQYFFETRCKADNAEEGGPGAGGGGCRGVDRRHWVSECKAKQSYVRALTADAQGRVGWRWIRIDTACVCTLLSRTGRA

Test [3] concerns the target T3, S100B (prey, CIC format) (human) (UniProt P04271).
T3 sequence (looked up): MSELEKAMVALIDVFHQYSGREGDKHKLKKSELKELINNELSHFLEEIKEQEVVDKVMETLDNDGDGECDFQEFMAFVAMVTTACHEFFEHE

Test [4] deals with T4, NCBP2 (prey, CIC format) (human) (UniProt P52298).
T4 sequence (looked up): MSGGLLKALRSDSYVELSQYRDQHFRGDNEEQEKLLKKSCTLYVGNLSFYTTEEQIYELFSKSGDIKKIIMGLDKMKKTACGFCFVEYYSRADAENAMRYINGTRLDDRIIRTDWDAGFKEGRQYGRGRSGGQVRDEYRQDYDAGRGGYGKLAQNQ

Test [5] deals with DDIT3 (prey, CIC format) (human) (UniProt P35638).
The target in test [6] is LMNB1 (prey, CIC format) (human) (UniProt P20700).
Test [7] addresses T5, FRS2 (prey, CIC format) (human) (UniProt Q8WU20).
T5 sequence (looked up): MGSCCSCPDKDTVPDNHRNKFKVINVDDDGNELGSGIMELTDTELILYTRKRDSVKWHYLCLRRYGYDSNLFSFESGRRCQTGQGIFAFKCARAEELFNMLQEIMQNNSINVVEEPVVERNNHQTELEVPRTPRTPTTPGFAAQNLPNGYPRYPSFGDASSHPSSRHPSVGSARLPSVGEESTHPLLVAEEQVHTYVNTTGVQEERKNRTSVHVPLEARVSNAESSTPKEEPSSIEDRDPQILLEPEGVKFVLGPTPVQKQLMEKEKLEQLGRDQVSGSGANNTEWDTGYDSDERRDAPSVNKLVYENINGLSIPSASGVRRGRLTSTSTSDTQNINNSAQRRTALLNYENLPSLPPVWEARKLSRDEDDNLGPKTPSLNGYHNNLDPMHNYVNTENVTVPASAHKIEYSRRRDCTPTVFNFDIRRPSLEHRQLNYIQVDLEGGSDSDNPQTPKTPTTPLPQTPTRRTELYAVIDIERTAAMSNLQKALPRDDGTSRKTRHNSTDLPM

Test [8] addresses PCNA (prey, CIC format) (human) (UniProt P12004).
For test [9], the target named is T6, PDPK1 (prey, CIC format) (human) (UniProt O15530).
T6 sequence (looked up): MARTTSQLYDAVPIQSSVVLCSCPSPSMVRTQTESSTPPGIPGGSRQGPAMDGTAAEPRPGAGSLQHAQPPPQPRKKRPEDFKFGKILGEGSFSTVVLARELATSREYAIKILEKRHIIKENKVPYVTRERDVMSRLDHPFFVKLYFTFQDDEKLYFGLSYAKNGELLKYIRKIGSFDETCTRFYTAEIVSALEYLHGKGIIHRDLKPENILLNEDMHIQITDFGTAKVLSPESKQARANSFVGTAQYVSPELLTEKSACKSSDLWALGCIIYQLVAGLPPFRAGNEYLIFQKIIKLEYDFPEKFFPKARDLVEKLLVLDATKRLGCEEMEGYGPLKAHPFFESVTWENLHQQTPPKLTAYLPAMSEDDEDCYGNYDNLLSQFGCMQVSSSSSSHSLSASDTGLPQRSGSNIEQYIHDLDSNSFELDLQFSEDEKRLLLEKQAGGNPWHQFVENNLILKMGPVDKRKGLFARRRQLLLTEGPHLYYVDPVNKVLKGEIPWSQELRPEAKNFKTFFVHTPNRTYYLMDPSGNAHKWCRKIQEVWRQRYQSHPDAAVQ

Test [10] addresses BCL2L1 (prey, CIC format) (human) (UniProt Q07817).
In test [11] the target is T7, DCP1A (prey, CIC format) (human) (UniProt Q9NPI6).
T7 sequence (looked up): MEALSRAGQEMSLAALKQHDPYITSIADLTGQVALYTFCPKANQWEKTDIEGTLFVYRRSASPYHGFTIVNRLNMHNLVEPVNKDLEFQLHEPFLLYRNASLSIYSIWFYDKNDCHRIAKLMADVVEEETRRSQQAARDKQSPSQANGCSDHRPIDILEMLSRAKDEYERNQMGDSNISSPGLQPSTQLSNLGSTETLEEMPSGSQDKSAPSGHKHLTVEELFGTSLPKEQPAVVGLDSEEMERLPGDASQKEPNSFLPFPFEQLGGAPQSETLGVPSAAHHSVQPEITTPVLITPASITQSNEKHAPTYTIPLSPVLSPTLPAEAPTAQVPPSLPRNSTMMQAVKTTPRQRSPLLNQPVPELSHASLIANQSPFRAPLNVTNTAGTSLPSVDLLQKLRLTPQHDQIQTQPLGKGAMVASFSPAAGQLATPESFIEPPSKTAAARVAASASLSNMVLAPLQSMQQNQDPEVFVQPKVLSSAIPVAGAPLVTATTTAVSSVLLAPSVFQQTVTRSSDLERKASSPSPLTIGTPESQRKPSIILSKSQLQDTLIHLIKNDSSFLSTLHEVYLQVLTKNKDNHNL

Test [12] deals with T8, PTPN11 (prey, CIC format) (human) (UniProt Q06124).
T8 sequence (looked up): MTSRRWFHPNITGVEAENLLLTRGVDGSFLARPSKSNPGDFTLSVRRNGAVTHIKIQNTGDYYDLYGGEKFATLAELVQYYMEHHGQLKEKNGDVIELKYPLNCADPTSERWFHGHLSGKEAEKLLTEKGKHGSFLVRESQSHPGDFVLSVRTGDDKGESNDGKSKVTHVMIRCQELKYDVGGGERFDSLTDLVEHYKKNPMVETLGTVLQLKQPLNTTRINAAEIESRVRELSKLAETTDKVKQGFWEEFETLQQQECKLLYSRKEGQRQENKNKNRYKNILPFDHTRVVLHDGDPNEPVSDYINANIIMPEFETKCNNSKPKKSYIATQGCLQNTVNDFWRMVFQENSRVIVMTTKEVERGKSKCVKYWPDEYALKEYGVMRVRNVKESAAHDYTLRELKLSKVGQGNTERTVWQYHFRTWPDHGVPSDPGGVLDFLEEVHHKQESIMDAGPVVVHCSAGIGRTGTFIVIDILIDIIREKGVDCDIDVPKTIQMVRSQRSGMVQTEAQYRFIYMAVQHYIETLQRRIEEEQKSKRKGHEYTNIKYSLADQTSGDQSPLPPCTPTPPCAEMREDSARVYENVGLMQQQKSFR

The target of test [13] is T9, BATF (prey, CIC format) (human) (UniProt Q16520).
T9 sequence (looked up): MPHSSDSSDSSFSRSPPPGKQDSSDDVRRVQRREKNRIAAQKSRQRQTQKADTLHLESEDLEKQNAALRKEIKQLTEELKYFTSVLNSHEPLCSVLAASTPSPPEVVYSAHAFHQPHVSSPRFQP

In test [14] the target is ARHGAP1 (prey, CIC format) (human) (UniProt Q07960).
In test [15] the target is CASP9 (prey, CIC format) (human) (UniProt P55211).
Substrate in test [16]: FOS (prey, CIC format) (human) (UniProt P01100)

Chain of BCL2L1 (prey, CIC format) (human) (Q07817 whole entry): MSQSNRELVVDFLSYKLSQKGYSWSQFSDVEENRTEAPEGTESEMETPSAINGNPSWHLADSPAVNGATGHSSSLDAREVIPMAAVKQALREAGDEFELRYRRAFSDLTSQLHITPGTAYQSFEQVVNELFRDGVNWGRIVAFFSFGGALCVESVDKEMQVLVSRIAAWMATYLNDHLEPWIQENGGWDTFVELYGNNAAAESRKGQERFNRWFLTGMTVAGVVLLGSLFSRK
Chain of FOS (prey, CIC format) (human) (P01100 whole entry): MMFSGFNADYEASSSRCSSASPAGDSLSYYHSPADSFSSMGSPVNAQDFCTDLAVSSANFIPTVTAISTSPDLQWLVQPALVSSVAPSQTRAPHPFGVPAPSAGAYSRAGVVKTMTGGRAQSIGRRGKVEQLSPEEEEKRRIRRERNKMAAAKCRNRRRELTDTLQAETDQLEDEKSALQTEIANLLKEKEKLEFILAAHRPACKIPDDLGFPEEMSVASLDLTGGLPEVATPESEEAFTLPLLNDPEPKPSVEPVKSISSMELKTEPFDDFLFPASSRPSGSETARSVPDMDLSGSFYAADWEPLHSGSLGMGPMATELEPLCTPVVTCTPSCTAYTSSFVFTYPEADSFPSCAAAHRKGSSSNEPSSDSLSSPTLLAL
Chain of PCNA (prey, CIC format) (human) (P12004 whole entry): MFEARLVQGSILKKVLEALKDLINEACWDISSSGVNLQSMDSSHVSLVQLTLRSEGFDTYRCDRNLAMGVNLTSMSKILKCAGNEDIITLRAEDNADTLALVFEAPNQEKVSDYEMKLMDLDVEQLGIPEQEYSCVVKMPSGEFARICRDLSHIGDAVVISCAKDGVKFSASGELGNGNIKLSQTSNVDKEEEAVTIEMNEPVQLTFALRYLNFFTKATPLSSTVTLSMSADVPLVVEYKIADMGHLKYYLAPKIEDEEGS
Chain of CASP9 (prey, CIC format) (human) (P55211 whole entry): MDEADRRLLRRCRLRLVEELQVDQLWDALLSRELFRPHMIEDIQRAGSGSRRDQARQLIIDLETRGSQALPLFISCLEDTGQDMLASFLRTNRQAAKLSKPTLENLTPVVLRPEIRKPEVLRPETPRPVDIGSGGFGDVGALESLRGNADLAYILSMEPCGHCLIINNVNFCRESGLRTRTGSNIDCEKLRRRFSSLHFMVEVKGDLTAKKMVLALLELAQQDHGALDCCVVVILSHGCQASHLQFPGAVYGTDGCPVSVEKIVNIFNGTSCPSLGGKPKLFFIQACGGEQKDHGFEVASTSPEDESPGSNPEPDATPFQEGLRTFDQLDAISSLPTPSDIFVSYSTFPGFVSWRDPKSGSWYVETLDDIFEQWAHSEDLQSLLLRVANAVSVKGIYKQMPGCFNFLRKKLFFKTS
Chain of LMNB1 (prey, CIC format) (human) (P20700 whole entry): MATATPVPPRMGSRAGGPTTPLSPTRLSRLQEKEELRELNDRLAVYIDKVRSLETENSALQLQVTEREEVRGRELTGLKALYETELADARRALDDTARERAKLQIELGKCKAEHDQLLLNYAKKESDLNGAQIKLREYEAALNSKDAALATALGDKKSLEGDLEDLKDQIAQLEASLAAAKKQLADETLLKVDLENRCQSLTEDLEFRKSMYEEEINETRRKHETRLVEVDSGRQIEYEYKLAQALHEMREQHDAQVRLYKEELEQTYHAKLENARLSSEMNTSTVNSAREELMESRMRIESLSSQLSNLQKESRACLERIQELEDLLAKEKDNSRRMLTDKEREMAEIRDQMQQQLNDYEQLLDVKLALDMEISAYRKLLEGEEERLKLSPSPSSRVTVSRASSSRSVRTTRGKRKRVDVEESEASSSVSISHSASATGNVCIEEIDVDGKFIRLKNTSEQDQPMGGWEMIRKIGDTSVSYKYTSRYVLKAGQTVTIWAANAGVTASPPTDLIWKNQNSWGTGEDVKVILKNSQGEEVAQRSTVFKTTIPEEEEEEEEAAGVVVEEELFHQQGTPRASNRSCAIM
Chain of DDIT3 (prey, CIC format) (human) (P35638 whole entry): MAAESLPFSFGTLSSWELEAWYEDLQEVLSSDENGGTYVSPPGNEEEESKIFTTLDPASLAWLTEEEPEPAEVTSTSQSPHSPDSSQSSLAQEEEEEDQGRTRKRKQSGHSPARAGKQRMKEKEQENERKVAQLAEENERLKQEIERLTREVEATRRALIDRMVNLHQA
Chain of ARHGAP1 (prey, CIC format) (human) (Q07960 whole entry): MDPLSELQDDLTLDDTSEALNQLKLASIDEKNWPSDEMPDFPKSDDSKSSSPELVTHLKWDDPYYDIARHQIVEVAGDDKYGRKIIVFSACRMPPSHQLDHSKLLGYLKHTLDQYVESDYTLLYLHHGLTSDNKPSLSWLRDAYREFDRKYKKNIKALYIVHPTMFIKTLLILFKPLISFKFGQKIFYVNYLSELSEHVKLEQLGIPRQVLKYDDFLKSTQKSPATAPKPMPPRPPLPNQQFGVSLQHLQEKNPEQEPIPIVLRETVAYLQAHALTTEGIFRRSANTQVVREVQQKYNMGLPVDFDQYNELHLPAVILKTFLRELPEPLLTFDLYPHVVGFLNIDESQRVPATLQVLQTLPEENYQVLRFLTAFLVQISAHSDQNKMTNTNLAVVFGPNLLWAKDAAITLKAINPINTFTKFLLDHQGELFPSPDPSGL

B1: DR1 (bait, IN format) (protein, human, UniProt Q01658 1-176, looked up)
chain: MASSSGNDDDLTIPRAAINKMIKETLPNVRVANDARELVVNCCTEFIHLISSEANEICNKSEKKTISPEHVIQALESLGFGSYISEVKEVLQECKTVALKRRKASSRLENLGIPEEELLRQQQELFAKARQQQAELAQQEWLQMQQAAQQAQLAAASASASNQAGSSQDEEDDDDI
For the molecule B1, the PLU mean in test [1] is 3.97; in [2], 0.0529.

B2: NCBP1 (bait, IN format) (protein, human, UniProt Q09161 1-790, looked up)
chain: MSRRRHSDENDGGQPHKRRKTSDANETEDHLESLICKVGEKSACSLESNLEGLAGVLEADLPNYKSKILRLLCTVARLLPEKLTIYTTLVGLLNARNYNFGGEFVEAMIRQLKESLKANNYNEAVYLVRFLSDLVNCHVIAAPSMVAMFENFVSVTQEEDVPQVRRDWYVYAFLSSLPWVGKELYEKKDAEMDRIFANTESYLKRRQKTHVPMLQVWTADKPHPQEEYLDCLWAQIQKLKKDRWQERHILRPYLAFDSILCEALQHNLPPFTPPPHTEDSVYPMPRVIFRMFDYTDDPEGPVMPGSHSVERFVIEENLHCIIKSHWKERKTCAAQLVSYPGKNKIPLNYHIVEVIFAELFQLPAPPHIDVMYTTLLIELCKLQPGSLPQVLAQATEMLYMRLDTMNTTCVDRFINWFSHHLSNFQFRWSWEDWSDCLSQDPESPKPKFVREVLEKCMRLSYHQRILDIVPPTFSALCPANPTCIYKYGDESSNSLPGHSVALCLAVAFKSKATNDEIFSILKDVPNPNQDDDDDEGFSFNPLKIEVFVQTLLHLAAKSFSHSFSALAKFHEVFKTLAESDEGKLHVLRVMFEVWRNHPQMIAVLVDKMIRTQIVDCAAVANWIFSSELSRDFTRLFVWEILHSTIRKMNKHVLKIQKELEEAKEKLARQHKRRSDDDDRSSDRKDGVLEEQIERLQEKVESAQSEQKNLFLVIFQRFIMILTEHLVRCETDGTSVLTPWYKNCIERLQQIFLQHHQIIQQYMVTLENLLFTAELDPHILAVFQQFCALQA
In the case of B2, the PLU mean in test [3] came to 0.217; in test [4], 2.15.

B3: ATF3 (bait, IN format) (protein, human, UniProt P18847 1-181, looked up)
chain: MMLQHPGQVSASEVSASAIVPCLSPPGSLVFEDFANLTPFVKEELRFAIQNKHLCHRMSSALESVTVSDRPLGVSITKAEVAPEEDERKKRRRERNKIAAAKCRNKKKEKTECLQKESEKLESVNAELKAQIEELKNEKQHLIYMLNLHRPTCIVRAQNGRTPEDERNLFIQQIKEGTLQS
Turning to B3, the PLU mean in test [5] was 1.64; in test [6], 0.134.

B4: GADD45A (bait, IN format) (protein, human, UniProt P24522 1-165, looked up)
chain: MTLEEFSAGEQKTERMDKVGDALEEVLSKALSQRTITVGVYEAAKLLNVDPDNVVLCLLAADEDDDRDVALQIHFTLIQAFCCENDINILRVSNPGRLAELLLLETDAGPAASEGAEQPPDLHCVLVTNPHSSQWKDPALSQLICFCRESRYMDQWVPVINLPER
Turning to B4, the PLU mean in [7] stood at 0.21; in [8] it was 0.0617; in [9], 0.265.

B5: BAD (bait, IN format) (protein, human, UniProt Q92934 1-168, looked up)
chain: MFQIPEFEPSEQEDSSSAERGLGPSPAGDGPSGSGKHHRQAPGLLWDASHQQEQPTSSSHHGGAGAVEIRSRHSSYPAGTEDDEGMGEEPSPFRGRSRSAPPNLWAAQRYGRELRRMSDEFVDSFKKGLPRPKSAGTATQMRQSSSWTRVFQSWWDRNLGRGSSAPSQ
In the case of B5, the PLU mean came out at 1.85 in test [10] and 0.499 in test [11].

B6: JUNB (bait, IN format) (protein, human, UniProt P17275 1-347, looked up)
chain: MCTKMEQPFYHDDSYTATGYGRAPGGLSLHDYKLLKPSLAVNLADPYRSLKAPGARGPGPEGGGGGSYFSGQGSDTGASLKLASSELERLIVPNSNGVITTTPTPPGQYFYPRGGGSGGGAGGAGGGVTEEQEGFADGFVKALDDLHKMNHVTPPNVSLGATGGPPAGPGGVYAGPEPPPVYTNLSSYSPASASSGGAGAAVGTGSSYPTTTISYLPHAPPFAGGHPAQLGLGRGASTFKEEPQTVPEARSRDATPPVSPINMEDQERIKVERKRLRNRLAATKCRKRKLERIARLEDKVKTLKAENAGLSSTAGLLREQVAQLKQKVMTHVSNGCQLLLGVKGHAF
For the molecule B6, the PLU mean in [12] is 0.345; in [13], 2.04.

B7: CEBPG (bait, IN format) (protein, human, UniProt P53567 1-150, looked up)
chain: MSKISQQNSTPGVNGISVIHTQAHASGLQQVPQLVPAGPGGGGKAVAPSKQSKKSSPMDRNSDEYRQRRERNNMAVKKSRLKSKQKAQDTLQRVNQLKEENERLEAKIKLLTKELSVLKDLFLEHAHNLADNVQSISTENTTADGDNAGQ
Consider B7, for which the PLU mean in [14] was 0.0585; in test [15], 0.482; in test [16] it was 0.788.
